Assay results taken from PMC12416549 (2024).

B1: Y50N (designed binder)
chain: SMEEEVEKAAKEYEKKKKEAIEKHLEKLKAKDKEAAERFLKELEEAAKENAKDEAKTMSEEEAKRRAKKYKEKVLLSELSEEEQKEIKEAEEKLVRTILKYVEEAAK
B2: V102P (designed binder)
chain: SMEEEVEKAAKEYEKKKKEAIEKHLEKLKAKDKEAAERFLKELEEAAKEYAKDEAKTMSEEEAKRRAKKYKEKVLLSELSEEEQKEIKEAEEKLVRTILKYPEEAAK
B3: A67G (designed binder)
chain: SMEEEVEKAAKEYEKKKKEAIEKHLEKLKAKDKEAAERFLKELEEAAKEYAKDEAKTMSEEEAKRRGKKYKEKVLLSELSEEEQKEIKEAEEKLVRTILKYVEEAAK
B4: I87Q (designed binder)
chain: SMEEEVEKAAKEYEKKKKEAIEKHLEKLKAKDKEAAERFLKELEEAAKEYAKDEAKTMSEEEAKRRAKKYKEKVLLSELSEEEQKEQKEAEEKLVRTILKYVEEAAK
B5: A46S (designed binder)
chain: SMEEEVEKAAKEYEKKKKEAIEKHLEKLKAKDKEAAERFLKELEESAKEYAKDEAKTMSEEEAKRRAKKYKEKVLLSELSEEEQKEIKEAEEKLVRTILKYVEEAAK
B6: Y101R (designed binder)
chain: SMEEEVEKAAKEYEKKKKEAIEKHLEKLKAKDKEAAERFLKELEEAAKEYAKDEAKTMSEEEAKRRAKKYKEKVLLSELSEEEQKEIKEAEEKLVRTILKRVEEAAK
B7: S59K (designed binder)
chain: SMEEEVEKAAKEYEKKKKEAIEKHLEKLKAKDKEAAERFLKELEEAAKEYAKDEAKTMKEEEAKRRAKKYKEKVLLSELSEEEQKEIKEAEEKLVRTILKYVEEAAK
B8: F39S (designed binder)
chain: SMEEEVEKAAKEYEKKKKEAIEKHLEKLKAKDKEAAERSLKELEEAAKEYAKDEAKTMSEEEAKRRAKKYKEKVLLSELSEEEQKEIKEAEEKLVRTILKYVEEAAK
B9: F39I (designed binder)
chain: SMEEEVEKAAKEYEKKKKEAIEKHLEKLKAKDKEAAERILKELEEAAKEYAKDEAKTMSEEEAKRRAKKYKEKVLLSELSEEEQKEIKEAEEKLVRTILKYVEEAAK
B10: A63L (designed binder)
chain: SMEEEVEKAAKEYEKKKKEAIEKHLEKLKAKDKEAAERFLKELEEAAKEYAKDEAKTMSEEELKRRAKKYKEKVLLSELSEEEQKEIKEAEEKLVRTILKYVEEAAK
B11: K100L (designed binder)
chain: SMEEEVEKAAKEYEKKKKEAIEKHLEKLKAKDKEAAERFLKELEEAAKEYAKDEAKTMSEEEAKRRAKKYKEKVLLSELSEEEQKEIKEAEEKLVRTILLYVEEAAK
B12: E81P (designed binder)
chain: SMEEEVEKAAKEYEKKKKEAIEKHLEKLKAKDKEAAERFLKELEEAAKEYAKDEAKTMSEEEAKRRAKKYKEKVLLSELSPEEQKEIKEAEEKLVRTILKYVEEAAK
B13: S1M (designed binder)
chain: MMEEEVEKAAKEYEKKKKEAIEKHLEKLKAKDKEAAERFLKELEEAAKEYAKDEAKTMSEEEAKRRAKKYKEKVLLSELSEEEQKEIKEAEEKLVRTILKYVEEAAK
B14: L43W (designed binder)
chain: SMEEEVEKAAKEYEKKKKEAIEKHLEKLKAKDKEAAERFLKEWEEAAKEYAKDEAKTMSEEEAKRRAKKYKEKVLLSELSEEEQKEIKEAEEKLVRTILKYVEEAAK
B15: S1D (designed binder)
chain: DMEEEVEKAAKEYEKKKKEAIEKHLEKLKAKDKEAAERFLKELEEAAKEYAKDEAKTMSEEEAKRRAKKYKEKVLLSELSEEEQKEIKEAEEKLVRTILKYVEEAAK
B16: E89W (designed binder)
chain: SMEEEVEKAAKEYEKKKKEAIEKHLEKLKAKDKEAAERFLKELEEAAKEYAKDEAKTMSEEEAKRRAKKYKEKVLLSELSEEEQKEIKWAEEKLVRTILKYVEEAAK
B17: E12T (designed binder)
chain: SMEEEVEKAAKTYEKKKKEAIEKHLEKLKAKDKEAAERFLKELEEAAKEYAKDEAKTMSEEEAKRRAKKYKEKVLLSELSEEEQKEIKEAEEKLVRTILKYVEEAAK
B18: K29C (designed binder)
chain: SMEEEVEKAAKEYEKKKKEAIEKHLEKLCAKDKEAAERFLKELEEAAKEYAKDEAKTMSEEEAKRRAKKYKEKVLLSELSEEEQKEIKEAEEKLVRTILKYVEEAAK
B19: K33E (designed binder)
chain: SMEEEVEKAAKEYEKKKKEAIEKHLEKLKAKDEEAAERFLKELEEAAKEYAKDEAKTMSEEEAKRRAKKYKEKVLLSELSEEEQKEIKEAEEKLVRTILKYVEEAAK
B20: K11M (designed binder)
chain: SMEEEVEKAAMEYEKKKKEAIEKHLEKLKAKDKEAAERFLKELEEAAKEYAKDEAKTMSEEEAKRRAKKYKEKVLLSELSEEEQKEIKEAEEKLVRTILKYVEEAAK
B21: E22G (designed binder)
chain: SMEEEVEKAAKEYEKKKKEAIGKHLEKLKAKDKEAAERFLKELEEAAKEYAKDEAKTMSEEEAKRRAKKYKEKVLLSELSEEEQKEIKEAEEKLVRTILKYVEEAAK
B22: A36W (designed binder)
chain: SMEEEVEKAAKEYEKKKKEAIEKHLEKLKAKDKEAWERFLKELEEAAKEYAKDEAKTMSEEEAKRRAKKYKEKVLLSELSEEEQKEIKEAEEKLVRTILKYVEEAAK
B23: E83Y (designed binder)
chain: SMEEEVEKAAKEYEKKKKEAIEKHLEKLKAKDKEAAERFLKELEEAAKEYAKDEAKTMSEEEAKRRAKKYKEKVLLSELSEEYQKEIKEAEEKLVRTILKYVEEAAK
B24: K17A (designed binder)
chain: SMEEEVEKAAKEYEKKAKEAIEKHLEKLKAKDKEAAERFLKELEEAAKEYAKDEAKTMSEEEAKRRAKKYKEKVLLSELSEEEQKEIKEAEEKLVRTILKYVEEAAK
B25: A67K (designed binder)
chain: SMEEEVEKAAKEYEKKKKEAIEKHLEKLKAKDKEAAERFLKELEEAAKEYAKDEAKTMSEEEAKRRKKKYKEKVLLSELSEEEQKEIKEAEEKLVRTILKYVEEAAK
B26: K15R (designed binder)
chain: SMEEEVEKAAKEYERKKKEAIEKHLEKLKAKDKEAAERFLKELEEAAKEYAKDEAKTMSEEEAKRRAKKYKEKVLLSELSEEEQKEIKEAEEKLVRTILKYVEEAAK

Biological target: T1, TNFR1 (Homo sapiens, UniProt P19438)
T1 chain: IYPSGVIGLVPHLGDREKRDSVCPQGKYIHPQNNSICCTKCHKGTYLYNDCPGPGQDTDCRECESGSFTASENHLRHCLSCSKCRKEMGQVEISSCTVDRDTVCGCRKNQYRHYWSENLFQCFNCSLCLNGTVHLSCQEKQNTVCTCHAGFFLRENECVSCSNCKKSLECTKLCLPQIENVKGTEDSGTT
Experiment: yeast display SC50

Binder | apparent Kd (screen) [nM]
B1 | 1.54
B2 | 0.49
B3 | 0.49
B4 | 3
B5 | 0.49
B6 | 0.446
B7 | 1.05
B8 | 7.07
B9 | 3.99
B10 | 9.41
B11 | 1.69
B12 | 0.49
B13 | 2.25
B14 | 2.73
B15 | 0.446
B16 | 1.69
B17 | 1.05
B18 | 1.4
B19 | 0.539
B20 | 0.446
B21 | 1.05
B22 | 0.446
B23 | 2.05
B24 | 1.86
B25 | 1.54
B26 | 0.593
